Experimental data reported in ChEMBL document CHEMBL1671717, “In vitro potentiation of carbapenems with ME1071, a novel metallo-beta-lactamase inhibitor, against metallo-beta-lactamase- producing Pseudomonas aeruginosa clinical isolates” (Antimicrob Agents Chemother, 2010).
Active and inactive are the calls of the source. The calls are words filed in the database; no cut-off is given here.

Columns and labels:
Pseudomonas aeruginosa [1] = experiment: Inhibition of Pseudomonas aeruginosa Metallo-beta-lactamase assessed as decrease in biapenem resistance rate at 32 ug/ml
Pseudomonas aeruginosa [2] = experiment: Inhibition of Pseudomonas aeruginosa Metallo-beta-lactamase assessed as increase in biapenem susceptible rate at 32 ug/ml; design: scale not given: the % may be the effect or the level left
Pseudomonas aeruginosa [3] = experiment: Inhibition of Pseudomonas aeruginosa Metallo-beta-lactamase assessed as potentiation of piperacillin antimicrobial activity
Pseudomonas aeruginosa [4] = experiment: Inhibition of Pseudomonas aeruginosa Metallo-beta-lactamase assessed as potentiation of aztreonam antimicrobial activity
[5] = test system: C[C@@H](O)[C@H]1C(=O)N2C(C(=O)O)=C(SCCNC=N)C[C@H]12; experiment: (§1) Activity of Pseudomonas aeruginosa beta-lactamase VIM-2 by UV spectrophotometric analysis
[6] = test system: C[C@@H](O)[C@H]1C(=O)N2C(C(=O)[O-])=C(SC3Cn4cnc[n+]4C3)[C@H](C)[C@H]12; experiment: as §1
[7] = test system: C[C@@H](O)[C@H]1C(=O)N2C(C(=O)O)=C(SCCNC=N)C[C@H]12; experiment: (§2) Ratio of Kcat to Km for Pseudomonas aeruginosa beta-lactamaseVIM-2 by UV spectrophotometric analysis
[8] = test system: C[C@@H](O)[C@H]1C(=O)N2C(C(=O)[O-])=C(SC3Cn4cnc[n+]4C3)[C@H](C)[C@H]12; experiment: as §2

In the case of `CC/C(C(=O)O)=C(\CC)C(=O)O`, the inhibition (Pseudomonas aeruginosa [1]) is reported as 40%, the Activity (Pseudomonas aeruginosa [2]) is reported as 22% and the Activity (Pseudomonas aeruginosa [3]) is reported as “inactive”. The Activity (Pseudomonas aeruginosa [4]) was “inactive”.
In the case of “Beta-lactamase VIM-2 (Pseudomonas aeruginosa) (from UniProt Q9K2N0)”, the Km [5] is reported as 8.5 µM, the kcat [5] is reported as 98.9 s⁻¹ and the Km [6] is reported as 24.7 µM. For the same molecule, the kcat [6] was 12.4 s⁻¹, the kcat/Km [7] was 1.2e+07 M⁻¹ s⁻¹ and the kcat/Km [8] was 500000 M⁻¹ s⁻¹.
